In this test the target is cytochrome bd from Escherichia coli, His6-tagged (His6-CydABX) (E. coli) (UniProt P0ABJ9). The experiment in a line: SEC; 500 ug purified cytochrome bd on Superose 6 10/300 in 50 mM MOPS, 100 mM NaCl, 0.1% LM, pH 7; UV 280 nm, refractive index and right angle light scattering monitored. Background: Size exclusion chromatography separates by hydrodynamic size, large species first.

By stoichiometry N is commonly meant the number of molecules, sites or subunits per partner or assembly.

As to “cytochrome bd from Escherichia coli, His6-tagged (His6-CydABX) (from UniProt P0ABJ9 1-522; P0ABK2 1-379) (complex)”, the stoichiometry N came to 4.

Source of the values: article PMC4899803.
